Data taken from publication PMC11053023 (Nature Communications, 2024).

Experiments:
[1] = molecular target: T1, FEM1B-EB-EC ternary complex with FEM1B D356A/V391A/Q394A/F501A/H502A (human, UniProt Q9UK73 1-627; Q15370 1-118; Q15369 17-112, D356A | V391A | Q394A | F501A | H502A); test: ITC; SUMO fusion peptides (0.5-1 mM) titrated into 50 μM FEM1B-EB-EC in the cell, 25 °C, 20 mM Tris, 200 mM NaCl, pH 7.5, 1 mM EDTA; one-site binding model; settings: both partners purified
T1 construct: FEM1B, human, full length, quintuple mutant of the aromatic (psi) pocket; elongin B (EB, ELOB), human; elongin C (EC, ELOC), human; also called 5A mutant; FEM1BFL-EB-EC D356A/V391A/Q394A/F501A/H502A; source: E. coli BL21(DE3), purified in the same way as the WT protein; copies: + +

[2] = molecular target: T2, FEM1B-EB-EC ternary complex (human, UniProt Q9UK73 1-627; Q15370 1-118; Q15369 17-112); test: ITC; peptides (0.5-1 mM) titrated into 50 μM protein in the cell, 25 °C; 20 mM Tris, 200 mM NaCl, pH 7.5, 1 mM EDTA; one-site binding model; settings: both partners purified
T2 construct: FEM1B, human, full-length (FEM1B^FL); elongin B (EB, ELOB), human; elongin C (EC, ELOC), human; written as one protomer; also called FEM1B-elongin B-elongin C; FEM1B-ELOB-ELOC; source: E. coli BL21(DE3), co-expressed, purified (Ni-NTA, SEC); copies: + +

B1: SUMO-(GGGS)2-CDK5R1 298-307 WT (peptide)
chain: KKRLLLGLDR
notes: CDK5R1, human, C-terminal 10 residues; also called CDK5R1 10-mer; 10-aa CDK5R1 C-degron; source: E. coli BL21(DE3), purified (Ni-NTA; SEC for ITC); not shown: SUMO with (GGGS)2 linker, N-terminal, kept
stoichiometry N [1]: 0.46

B2: SUMO-(GGGS)2-CDK5R1 285-307 WT (peptide)
chain: VFSDLKNESGQEDKKRLLLGLDR
notes: CDK5R1, human, C-terminal 23 residues; also called CDK5R1 23-mer; 23-aa CDK5R1 C-degron; source: E. coli BL21(DE3), purified (Ni-NTA; SEC for ITC); not shown: SUMO with (GGGS)2 linker, N-terminal, kept
Kd [1]: 5.7 ± 0.8 µM
stoichiometry N [1]: 0.16

KKHSLDLLLRHLSP [CCDC89 C-degron variant with deletion of nine residues in the linker region]
Kd [2]: > 50 µM

KAADHLHKFHENDNGAAAGDLWQ [CUX1 C-degron F-22A, SUMO fusion]
Kd [2]: > 500 µM
